Measurements published in article PMC2651628.

Legend:
CFP-vinculin = CFP-vinculin (UniProt P18206); test: FRET or BRET; u-adFRET (acceptor-depletion FRET with linear spectral unmixing) in U251MG cells co-transfected with YFP (Venus) acceptor and CFP donor fusions, fixed in 4% paraformaldehyde; FRET efficiency by region of the cell (cytosol, peripheral, focal adhesion)
CD44-CFP = CD44-CFP (UniProt P16070); test: as above
Chain of UniProt P16070 (P16070 21-742): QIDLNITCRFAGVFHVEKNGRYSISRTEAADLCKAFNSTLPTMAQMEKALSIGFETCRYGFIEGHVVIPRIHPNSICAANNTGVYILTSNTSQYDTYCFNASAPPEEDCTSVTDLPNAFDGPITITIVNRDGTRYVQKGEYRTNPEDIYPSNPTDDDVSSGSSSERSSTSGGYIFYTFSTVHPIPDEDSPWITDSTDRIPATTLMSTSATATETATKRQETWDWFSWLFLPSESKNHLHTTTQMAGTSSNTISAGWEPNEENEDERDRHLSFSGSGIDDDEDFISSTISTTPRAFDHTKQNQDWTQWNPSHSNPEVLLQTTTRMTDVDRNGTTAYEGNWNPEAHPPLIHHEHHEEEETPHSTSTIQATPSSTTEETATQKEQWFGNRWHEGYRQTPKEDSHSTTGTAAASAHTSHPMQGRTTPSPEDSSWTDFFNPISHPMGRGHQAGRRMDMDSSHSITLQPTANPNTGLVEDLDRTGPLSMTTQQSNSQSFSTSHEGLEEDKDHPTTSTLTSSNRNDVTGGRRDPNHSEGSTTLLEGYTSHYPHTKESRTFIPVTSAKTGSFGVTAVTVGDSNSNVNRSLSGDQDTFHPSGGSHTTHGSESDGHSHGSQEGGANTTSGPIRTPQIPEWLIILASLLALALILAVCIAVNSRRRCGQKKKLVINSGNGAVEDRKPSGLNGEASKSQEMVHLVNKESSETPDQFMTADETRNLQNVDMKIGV

Chain of UniProt P18206 (P18206 whole entry, the tested form may be a part): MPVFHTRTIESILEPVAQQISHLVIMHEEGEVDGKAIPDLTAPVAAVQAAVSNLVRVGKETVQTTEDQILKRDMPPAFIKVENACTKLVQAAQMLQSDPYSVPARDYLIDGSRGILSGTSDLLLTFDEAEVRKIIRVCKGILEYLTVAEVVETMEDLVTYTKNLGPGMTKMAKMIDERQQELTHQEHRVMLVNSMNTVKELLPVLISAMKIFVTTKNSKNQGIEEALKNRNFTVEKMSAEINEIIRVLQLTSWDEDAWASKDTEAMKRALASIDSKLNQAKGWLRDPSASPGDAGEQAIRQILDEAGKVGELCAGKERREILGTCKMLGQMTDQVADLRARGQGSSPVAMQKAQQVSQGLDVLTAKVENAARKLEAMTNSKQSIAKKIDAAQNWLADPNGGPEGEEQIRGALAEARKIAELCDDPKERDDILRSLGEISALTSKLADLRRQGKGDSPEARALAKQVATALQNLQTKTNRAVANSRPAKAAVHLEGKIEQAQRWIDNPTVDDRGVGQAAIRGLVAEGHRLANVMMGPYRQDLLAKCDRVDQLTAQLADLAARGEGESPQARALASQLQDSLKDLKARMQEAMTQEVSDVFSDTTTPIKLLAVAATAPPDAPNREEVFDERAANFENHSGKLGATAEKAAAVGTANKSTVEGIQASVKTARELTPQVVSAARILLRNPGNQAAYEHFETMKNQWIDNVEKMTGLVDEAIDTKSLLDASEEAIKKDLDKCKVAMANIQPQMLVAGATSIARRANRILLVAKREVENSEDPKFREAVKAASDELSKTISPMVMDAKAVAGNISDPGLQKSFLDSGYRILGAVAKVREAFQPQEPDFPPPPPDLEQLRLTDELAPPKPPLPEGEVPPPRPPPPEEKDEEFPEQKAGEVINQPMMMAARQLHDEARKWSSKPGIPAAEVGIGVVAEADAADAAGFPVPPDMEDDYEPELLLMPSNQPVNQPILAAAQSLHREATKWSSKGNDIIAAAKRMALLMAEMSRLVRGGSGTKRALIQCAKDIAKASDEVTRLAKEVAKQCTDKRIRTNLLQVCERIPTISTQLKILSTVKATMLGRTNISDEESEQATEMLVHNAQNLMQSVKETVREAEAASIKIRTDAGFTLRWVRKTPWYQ

FRET efficiency (FA, focal adhesion) (CFP-vinculin): 19
FRET efficiency (cytosol) (CD44-CFP): -7
FRET efficiency (peripheral) (CD44-CFP): -2
Substance: YFP-hMena (human Mena fused to monomeric Venus) (from UniProt Q8N8S7 1-591) (natural protein)
